This is an account of results in patent US20210145750A1, “COMPLEX, pH SENSITIVE COMPOSITION INCLUDING COMPLEX, AND METHOD FOR PRODUCING COMPLEX” (TERUMO KABUSHIKI KAISHA, priority 2017, published 2021).

A short description of data set [1]: Leaching test: leakage (membrane disruptive function). The conditions noted are these: sample not acid-aggregated. It counts as biochemical.
Method: Herein, the term “membrane disruptive function” means a function of causing leakage in a leaching test. Herein, the leaching test in the present specification is a test in which liposomes (dispersion) including an aqueous solution containing a quenching substance and a fluorescent substance, and an evaluation sample dispersion such as a solution containing a complex (aggregate of a pH sensitive carrier supporting a physiologically active substance) are added to an aqueous solution whose pH is adjusted to a predetermined level, followed by incubating the aqueous solution at 37° C. for 90 minutes or 30 minutes and measuring the fluorescence of the aqueous solution. According to this method, an amount of a fluorescent substance leached out from the liposomes can be measured, from which the liposome membrane disruptive function of the complex can be confirmed.
Herein, the expression “to develop a membrane disruptive function promoting effect” means to satisfy both of requirements (1) and (2): (1) in the leaching test, a leakage at a predetermined pH that is less than a physiological pH increases compared to a leakage at the physiological pH and the amount of increase is larger than the amount of increase in a case where the pH sensitive compound alone is subjected to the test; and (2) in the leaching test at a predetermined pH less than the physiological pH, a leakage of the complex is more than the sum of a leakage of the pH sensitive compound alone and a leakage of the amphipathic substance alone. More specifically, to develop a membrane disruptive function promoting effect means that, in the leaching test at a pH of 7.4 and at a pH of 5.0 or 4.5, a leakage Lc of the complex, a leakage La of the pH sensitive compound alone, and a leakage Lb of the amphipathic substance alone satisfy both the following relations. That is, the above (1) is represented by the following Formula (1) and the above (2) is represented by the following Formula (2). […]
3,000 nmol of EYPC (egg yolk phosphatidylcholine) dissolved in chloroform was measured and introduced into a 10-mL pear-shaped flask, and a thin film was produced using a rotary evaporator (BuCHI). […]
Meanwhile, the case of an EYPC liposome dispersion liquid only was designated as 0%, the value obtained in a case in which 30 μL of Triton-X100 diluted to ten time was added was designated as 100%, and the leakage was calculated.
Specifically, the leakage was calculated according to the following formula 4. In the following formula, the fluorescence intensity thus measured was designated as L, the fluorescence intensity of only the EYPC liposome dispersion liquid encapsulating a fluorescent substance was designated as L0, and the fluorescence intensity in the case of having Triton-X100 added thereto was designated as L100.
Data set [2] can be described thus: Integration of peptide with pH sensitive carrier: absorbance at 750 nm (Lowry kit), 0.22-μm filtration. It counts as physicochemical. The conditions noted are these: for peptide-derived absorbance: mixed liquid with the pH sensitive carrier at a neutral pH; for absorbance of the solution after filtration: pH lowered to obtain an aggregate of the pH sensitive carrier. As to the method: (§1) When a liquid including the complex obtained as described above is treated with a filter (for example, having a pore size of 0.22 μm), and the concentrations of the physiologically active substance before and after a filtration treatment are measured, the integration ratio of the physiologically active substance (proportion of the amount of the physiologically active substance incorporated into an aggregate of the pH sensitive carrier with respect to the total amount of the physiologically active substance added) can be checked. Here, the concentration of the physiologically active substance can be measured by any known method. Meanwhile, in the present specification, the integration efficiency of the physiologically active substance is defined as a value calculated by the following formula 3 based on the measurement of the absorbance before and after a filtration treatment. At this time, the absorbance may be measured at a wavelength corresponding to the absorption wavelength range of the physiologically active substance (for example, 280 nm in the case of a protein or a peptide, and 260 nm in the case of a nucleic acid). Alternatively, the liquid is colored using a commercially available quantification kit, and then the absorbance may be measured at a wavelength that is recommended by the protocol of the kit.
(§2) Integration efficiency of physiologically active substance (%)=[(Absorbance before filtration treatment−Absorbance after filtration treatment)/(Absorbance before filtration treatment)]×100 (Formula 3)
[…] and […] were used as peptides, and the concentration of the peptide was adjusted to 0.8 mg/mL. […] The pH at the time of preparing an aggregate of the pH sensitive carrier was adjusted to 4 using 1 N sulfuric acid. The time for standing was set to 2 hours. The mixed liquid was passed through a 0.22-μm filter, the liquid before and after filtration was colored using a peptide quantification kit (Lowry kit, manufactured by NACALAI TESQUE, INC.), and measurement of the absorbance at a wavelength of 750 nm was carried out.

Data set [3] in a line: Integration of OVA with pH sensitive carrier: absorbance at 595 nm (CBB) before and after 0.22-μm filtration. The class given is physicochemical. Particulars: for integration efficiency for OVA based on the change in the absorbance: DLPC 1,000 nmol in 1 mL. How it is done:
as §1, §2
2. Next, separation of the protein was checked. PBS at pH 7.4 containing OVA was passed through a 0.22-μm filter similarly to the previous operation. The liquid before and after the filtration treatment was colored using a protein quantification kit (protein assay CBB solution, manufactured by NACALAI TESQUE, INC.), and measurement of the absorbance at a wavelength of 595 nm was performed. […] Meanwhile, the absorbance was converted to concentration using a calibration curve, and while the OVA concentration before filtration was 0.81 mg/mL, the OVA concentration after filtration was 0.79 mg/mL. The concentrations thus obtained were consistent with the feed concentration (FIG. 3B). It was confirmed that free OVA all escaped without being captured by the filtration. Therefore, it was considered that integration of the aggregate of the pH sensitive carrier and the protein can be evaluated by measuring the protein concentrations before and after passage through a filter (pore diameter 0.22 μm).
OVA was mixed with a dispersion liquid of the pH sensitive carrier, and a mixed liquid was prepared. Subsequently, the mixed liquid was passed through a filter by a test method similar to section 2. of Experiment 2, and the change in the absorbance (corresponding to the OVA concentration) before and after a filtration treatment was investigated. […]

The mark [4] stands for this setting: aggregate of DLPC-deoxycholic acid carrier, pH 4, 2 hours.
[5] abbreviates: OVA 0.8 mg/mL, 1,000 nmol amphiphilic substance and 1,600 nmol pH sensitive compound in 1 mL, pH 4, 1 hour, listed as OVA only.
The mark [6] stands for this setting: PBS at pH 7.4, no carrier, from calibration curve.

Several values for one entry are separate records, joined by “and”; a condition that tells them apart may be missing. Equal entries are not always repeated.

Consider `CCCCCCCCCCCC(=O)OC[C@H](COP(=O)([O-])OCC[N+](C)(C)C)OC(=O)CCCCCCCCCCC` [DLPC alone, 1,2-dilauroyl-sn-glycero-3-phosphatidylcholine], for which the Leakage was 2.587% and 4.587% in data set [1] (leaching test at pH 5.0); 1.188% and 2.688% in data set [1] (leaching test at pH 7.4).
For the molecule RGPESRLL, in data set [2] (RGPESRLL), the peptide-derived absorbance came out at 1.40 and the “absorbance of the solution after filtration” value turned out to be 0.82. Also, in data set [2] (setting [4]), the “integration efficiency of the RGPESRLL peptide based on the change in absorbance” value was “about 41%”.
In the case of SIINFEKL, the “integration efficiency of the SIINFEKL peptide based on the change in absorbance” value in data set [2] (setting [4]) is “about 27%”. Also, in data set [2], the peptide-derived absorbance was found to be 0.44 and the “absorbance of the solution after filtration” value came out at 0.32.

B1: OVA: Model protein: OVA (molecular weight 45 kDa, manufactured by Sigma-Aldrich Corp.) (protein, UniProt P01012 2-386, looked up)
Ovalbumin: GSIGAASMEFCFDVFKELKVHHANENIFYCPIAIMSALAMVYLGAKDSTRTQINKVVRFDKLPGFGDSIEAQCGTSVNVHSSLRDILNQITKPNDVYSFSLASRLYAEERYPILPEYLQCVKELYRGGLEPINFQTAADQARELINSWVESQTNGIIRNVLQPSSVDSQTAMVLVNAIVFKGLWEKAFKDEDTQAMPFRVTEQESKPVQMMYQIGLFRVASMASEKMKILELPFASGTMSMLVLLPDEVSGLEQLESIINFEKLTEWTSSNVMEERKIKVYLPRMKMEEKYNLTSVLMAMGITDVFSSSANLSGISSAESLKISQAVHAAHAEINEAGREVVGSAEAGVDAASVSEEFRADHPFLFCIKHIATNAVLFFGRCVSP
As to B1, in data set [3] (setting [5]), the “Absorbance after filtration (corresponding to the OVA concentration)” value was 0.651 and 0.533; the “Absorbance before filtration (corresponding to the OVA concentration)” value was 0.661 and 0.588. Further, in data set [3] (setting [6]), the “OVA concentration after filtration” value is listed as 0.79 mg/mL and the “OVA concentration before filtration” value came out at 0.81 mg/mL. In addition, the “Absorbance at 595 nm before filtration” value in data set [3] (PBS at pH 7.4 containing OVA, no carrier) stood at 0.616. For the same molecule, the “Absorbance at 595 nm after filtration” value in data set [3] (PBS at pH 7.4 containing OVA, no carrier, 0.22-μm filter) worked out at 0.601. In addition, the “integration efficiency for OVA based on the change in the absorbance” value in data set [3] (carrier with deoxycholic acid 400 nmol/mL, pH 4) is on record as “about 42%”. For the same molecule, the “integration efficiency for OVA based on the change in the absorbance” value in data set [3] (carrier with deoxycholic acid 1,600 nmol/mL, pH 4) is “about 60%”. Besides, the “integration efficiency for OVA based on the change in the absorbance” value in data set [3] (carrier with deoxycholic acid 6,400 nmol/mL, pH 4) is given as “about 64%”.
